Data on one molecule can be found in publication PMC2684960.

One may read the stoichiometry N as a count of units in the complex or per binding partner.

This experiment has as its target T1, phospho-IRF3 (S386), endogenous (human (endogenous in SALE)), Q14653.
T1 chain: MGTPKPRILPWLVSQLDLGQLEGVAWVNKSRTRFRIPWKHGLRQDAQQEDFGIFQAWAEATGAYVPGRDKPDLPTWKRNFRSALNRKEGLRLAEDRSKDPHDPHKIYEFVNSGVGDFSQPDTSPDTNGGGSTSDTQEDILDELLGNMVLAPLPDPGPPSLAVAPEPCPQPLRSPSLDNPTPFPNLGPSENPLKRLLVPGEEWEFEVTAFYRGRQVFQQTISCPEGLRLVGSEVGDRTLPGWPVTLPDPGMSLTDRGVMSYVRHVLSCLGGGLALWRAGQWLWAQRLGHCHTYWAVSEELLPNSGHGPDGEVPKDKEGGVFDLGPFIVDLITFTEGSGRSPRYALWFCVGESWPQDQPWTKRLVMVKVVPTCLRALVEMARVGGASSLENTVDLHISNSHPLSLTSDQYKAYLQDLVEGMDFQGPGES
In words: native gel or EMSA. The settings on record: remark: other sources report otherwise.

B1: phospho-IRF3 (S386), endogenous, Q14653 1-427 (natural protein)
chain: T1 chain
modifications: here or on the partner: phosphoserine at 386; phosphoserine at 386
Molecule B1 gave a stoichiometry N of 2.
